Measured values as given in patent US20210246204A1 (Alector, published 2021).

Legend:
[1] = molecular target: human Siglec-7 on primary human monocyte-derived dendritic cells (human, UniProt Q9Y286 19-467); assay: cell-based or functional assay
[2] = molecular target: T1, histidine-tagged human Siglec-7 (NovoProtein) (human, UniProt Q9Y286 19-353); assay: BLI, antibody captured
T1 construct: Bought protein; also called recombinant human Siglec-7; recombinant Siglec-7; not shown: histidine tag
Procedure: In this assay, the humanized antibodies were compared directly to S7AB. Briefly, the antibodies were captured on anti-human or anti-mouse IgG Fc Biosensors (Pall ForteBio). Varying concentrations (0-100 nM) of histidine-tagged human Siglec-7 (NovoProtein) were then bound to the captured anti-Siglec-7 surface (200 s association time, 900 s dissociation time). Multi-concentration kinetic analysis was performed using a 1:1 interaction model to extract association and dissociation rate constants (kₐ and kd, respectively) for each antibody. Apparent affinity constants (KD) were calculated from the ratio kd/kₐ.
The affinities of S7AB-H8 and variants S7AB-H8.1 through S7AB-H8.45 for human Siglec-7 were measured by BioLayer Interferometry according to the method described in Example 1 above.

Chain of human Siglec-7 on primary human monocyte-derived dendritic cells (Q9Y286 19-467): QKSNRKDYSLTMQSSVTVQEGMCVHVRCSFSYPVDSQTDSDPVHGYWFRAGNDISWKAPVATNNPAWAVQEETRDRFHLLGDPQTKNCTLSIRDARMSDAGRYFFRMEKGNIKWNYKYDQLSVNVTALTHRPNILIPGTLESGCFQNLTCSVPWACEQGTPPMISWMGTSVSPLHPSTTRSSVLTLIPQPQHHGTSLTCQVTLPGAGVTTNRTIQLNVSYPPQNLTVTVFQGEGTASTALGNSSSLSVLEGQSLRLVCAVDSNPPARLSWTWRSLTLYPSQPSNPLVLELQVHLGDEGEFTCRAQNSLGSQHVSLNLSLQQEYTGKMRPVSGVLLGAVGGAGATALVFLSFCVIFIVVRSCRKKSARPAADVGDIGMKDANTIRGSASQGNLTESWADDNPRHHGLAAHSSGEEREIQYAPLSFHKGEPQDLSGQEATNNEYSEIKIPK
T1 sequence (Q9Y286 19-353 limits assumed): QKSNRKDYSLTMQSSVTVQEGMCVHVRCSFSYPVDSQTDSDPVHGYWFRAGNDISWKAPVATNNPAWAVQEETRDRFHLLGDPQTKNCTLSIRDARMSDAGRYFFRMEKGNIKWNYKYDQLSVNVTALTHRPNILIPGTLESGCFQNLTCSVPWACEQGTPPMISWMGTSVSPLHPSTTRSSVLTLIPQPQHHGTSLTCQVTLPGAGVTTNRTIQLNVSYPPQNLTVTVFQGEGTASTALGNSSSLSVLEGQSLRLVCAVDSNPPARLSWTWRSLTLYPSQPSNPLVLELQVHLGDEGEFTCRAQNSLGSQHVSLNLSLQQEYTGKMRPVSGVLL

Binder	Fold increase in potency compared to AB-H8 [1] [fold]	Fold increase in potency compared to Chimeric Ab [1] [fold]	Maximal downregulation (% Siglec-7 remaining) [1] [%]	Receptor downregulation, (EC50) (pM) [1] [pM]	Kd [2] [nM]	fold improvement over S7AB-H8 [2] [fold]	koff [2] [s⁻¹]	kon [2] [M⁻¹ s⁻¹]
S7AB-H8.30 (antibody, V domains shown) VH: QVQLVQSGAEVKKPGASVKVSCKASGYAFTEAWMNWVRQAPGQGLEWIGRIFPGYGHTNYAQKFQGRATLTEDTSTSTAYMELSSLRSEDTAVYYCARDYSDYYFDYWGQGTLVTVSS VL: DIQMTQSPSSLSASVGDRVTITCRASQDANTYLNWYQQKPGKAPKLLIYYTSRLHSGVPSRFSGSGSGTDYTLTISSLQPEDFATYYCQQGNLLPWTFGQGTKLEIK	2.7	8.2	8.2	126	0.395	2.7	4.13e-05	105000
S7AB-H8.31 (antibody, V domains shown) VH: QVQLVQSGAEVKKPGASVKVSCKASGYAFTETWMNWVRQAPGQGLEWIGRIFPGLGHTNYAQKFQGRATLTEDTSTSTAYMELSSLRSEDTAVYYCARDYSDYYFDYWGQGTLVTVSS VL: DIQMTQSPSSLSASVGDRVTITCRGSQDINTYLNWYQQKPGKAPKLLIYYTSRLHSGVPSRFSGSGSGTDYTLTISSLQPEDFATYYCQQGGTLPWTFGQGTKLEIK	2.4	7.2	10.5	143	0.742	1.4	0.000107	145000
S7AB-H8.32 (antibody, V domains shown) VH: QVQLVQSGAEVKKPGASVKVSCKASGYAFTMAWMNWVRQAPGQGLEWIGRIFPGYGHTNYAQKFQGRATLTEDTSTSTAYMELSSLRSEDTAVYYCARDYSDYYFDYWGQGTLVTVSS VL: DIQMTQSPSSLSASVGDRVTITCRGSQDINTYLNWYQQKPGKAPKLLIYYTSRLHSGVPSRFSGSGSGTDYTLTISSLQPEDFATYYCQQGGTLPWTFGQGTKLEIK	3.7	11.2	3.4	91.3	0.356	2.9	3.93e-05	111000
S7AB-H8.34 (antibody, V domains shown) VH: QVQLVQSGAEVKKPGASVKVSCKASGYAFTAAWMNWVRQAPGQGLEWIGRIFPGLGHTNYAQKFQGRATLTEDTSTSTAYMELSSLRSEDTAVYYCARDYSDYYFDYWGQGTLVTVSS VL: DIQMTQSPSSLSASVGDRVTITCRGSQDINTYLNWYQQKPGKAPKLLIYYTSRLHSGVPSRFSGSGSGTDYTLTISSLQPEDFATYYCQQGGTLPWTFGQGTKLEIK	2.9	8.7	3.6	118	0.237	4.4	2.81e-05	119000
S7AB-H8.33 (antibody, V domains shown) VH: QVQLVQSGAEVKKPGASVKVSCKASGYAFTGYWMNWVRQAPGQGLEWIGRIFPGLGHTNYAQKFQGRATLTEDTSTSTAYMELSSLRSEDTAVYYCARDYSDYYFDYWGQGTLVTVSS VL: DIQMTQSPSSLSASVGDRVTITCRGSQDINTYLNWYQQKPGKAPKLLIYYTSRLHSGVPSRFSGSGSGTDYTLTISSLQPEDFATYYCQQGGTLPWTFGQGTKLEIK	5.2	15.7	17.2	65.3	0.326	3.2	7.64e-05	235000
S7AB-H8.35 (antibody, V domains shown) VH: QVQLVQSGAEVKKPGASVKVSCKASGYAFTEAWMNWVRQAPGQGLEWIGRIFPGYGHTNYAQKFQGRATLTEDTSTSTAYMELSSLRSEDTAVYYCARDYSDYYFDYWGQGTLVTVSS VL: DIQMTQSPSSLSASVGDRVTITCRGSQDINTYLNWYQQKPGKAPKLLIYYTSRLHSGVPSRFSGSGSGTDYTLTISSLQPEDFATYYCQQGGTLPWTFGQGTKLEIK	1.6	5	9.3	206	0.607	1.7	6.57e-05	108000

Next, values leading:

Fold increase in potency compared to AB-H8 [1] [fold]	Fold increase in potency compared to Chimeric Ab [1] [fold]	Maximal downregulation (% Siglec-7 remaining) [1] [%]	Receptor downregulation, (EC50) (pM) [1] [pM]	Kd [2] [nM]	fold improvement over S7AB-H8 [2] [fold]	koff [2] [s⁻¹]	kon [2] [M⁻¹ s⁻¹]	Binder
3.2	9.5	9.6	108	0.531	2	9.12e-05	172000	S7AB-H8.41 (antibody, V domains shown) VH: QVQLVQSGAEVKKPGASVKVSCKASGYAFTETWMNWVRQAPGQGLEWIGRIFPGLGHTNYAQKFQGRATLTEDTSTSTAYMELSSLRSEDTAVYYCARDYSDYYFDYWGQGTLVTVSS VL: DIQMTQSPSSLSASVGDRVTITCRGSQDINTYLNWYQQKPGKAPKLLIYYTSRLHSGVPSRFSGSGSGTDYTLTISSLQPEDFATYYCQQGNILPWTFGQGTKLEIK
2.7	8.2	11.4	125	0.605	1.7	9.81e-05	162000	S7AB-H8.36 (antibody, V domains shown) VH: QVQLVQSGAEVKKPGASVKVSCKASGYAFTETWMNWVRQAPGQGLEWIGRIFPGLGHTNYAQKFQGRATLTEDTSTSTAYMELSSLRSEDTAVYYCARDYSDYYFDYWGQGTLVTVSS VL: DIQMTQSPSSLSASVGDRVTITCRGSQDINTYLNWYQQKPGKAPKLLIYYTSRLHSGVPSRFSGSGSGTDYTLTISSLQPEDFATYYCQQGNVLPWTFGQGTKLEIK
5.4	16.4	3.3	62.6	0.126	8.3	2.42e-05	191000	S7AB-H8.42 (antibody, V domains shown) VH: QVQLVQSGAEVKKPGASVKVSCKASGYAFTMAWMNWVRQAPGQGLEWIGRIFPGYGHTNYAQKFQGRATLTEDTSTSTAYMELSSLRSEDTAVYYCARDYSDYYFDYWGQGTLVTVSS VL: DIQMTQSPSSLSASVGDRVTITCRGSQDINTYLNWYQQKPGKAPKLLIYYTSRLHSGVPSRFSGSGSGTDYTLTISSLQPEDFATYYCQQGNILPWTFGQGTKLEIK
4.8	14.5	17.1	70.4	0.324	3.2	7.4e-05	229000	S7AB-H8.38 (antibody, V domains shown) VH: QVQLVQSGAEVKKPGASVKVSCKASGYAFTGYWMNWVRQAPGQGLEWIGRIFPGLGHTNYAQKFQGRATLTEDTSTSTAYMELSSLRSEDTAVYYCARDYSDYYFDYWGQGTLVTVSS VL: DIQMTQSPSSLSASVGDRVTITCRGSQDINTYLNWYQQKPGKAPKLLIYYTSRLHSGVPSRFSGSGSGTDYTLTISSLQPEDFATYYCQQGNVLPWTFGQGTKLEIK
4.8	14.3	3.4	71.4	0.135	7.8	2.5e-05	186000	S7AB-H8.37 (antibody, V domains shown) VH: QVQLVQSGAEVKKPGASVKVSCKASGYAFTMAWMNWVRQAPGQGLEWIGRIFPGYGHTNYAQKFQGRATLTEDTSTSTAYMELSSLRSEDTAVYYCARDYSDYYFDYWGQGTLVTVSS VL: DIQMTQSPSSLSASVGDRVTITCRGSQDINTYLNWYQQKPGKAPKLLIYYTSRLHSGVPSRFSGSGSGTDYTLTISSLQPEDFATYYCQQGNVLPWTFGQGTKLEIK
2.9	8.9	9.4	115	0.425	2.5	6.29e-05	148000	S7AB-H8.40 (antibody, V domains shown) VH: QVQLVQSGAEVKKPGASVKVSCKASGYAFTEAWMNWVRQAPGQGLEWIGRIFPGYGHTNYAQKFQGRATLTEDTSTSTAYMELSSLRSEDTAVYYCARDYSDYYFDYWGQGTLVTVSS VL: DIQMTQSPSSLSASVGDRVTITCRGSQDINTYLNWYQQKPGKAPKLLIYYTSRLHSGVPSRFSGSGSGTDYTLTISSLQPEDFATYYCQQGNVLPWTFGQGTKLEIK
6	18	4.3	56.8	0.215	4.9	3.56e-05	166000	S7AB-H8.39 (antibody, V domains shown) VH: QVQLVQSGAEVKKPGASVKVSCKASGYAFTAAWMNWVRQAPGQGLEWIGRIFPGLGHTNYAQKFQGRATLTEDTSTSTAYMELSSLRSEDTAVYYCARDYSDYYFDYWGQGTLVTVSS VL: DIQMTQSPSSLSASVGDRVTITCRGSQDINTYLNWYQQKPGKAPKLLIYYTSRLHSGVPSRFSGSGSGTDYTLTISSLQPEDFATYYCQQGNVLPWTFGQGTKLEIK
